Data from the supplement of paper PMC10201428.
± gives the standard deviation of the averaged measurements.

What was measured:
[1] = system: VchCAST RNA-guided transposition machinery (E. coli BL21(DE3) host, lacZ target); experiment: relative integration efficiency (T-RL orientation) vs wild-type transposon end (log2 (normalized fold change)); transposon end mutated: right end (5 bp flank + 75 bp right end); higher = more efficient transposition
Method in brief: (§1)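 In E. coli BL21(DE3), a T7-driven effector plasmid was paired with a pUC57 mini-transposon donor containing 1549 left-end or 1849 right-end barcoded transposon variants. Cells grew on plates with 0.1 mM IPTG at 37°C for 18 h. Relative integration efficiency was derived from Illumina reads of genomic integration junctions against input plasmids, as a log-transformed output/input barcode fold change normalised to reference barcodes.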

[2] = system: VchCAST RNA-guided transposition machinery (E. coli BL21(DE3) host, lacZ target); experiment: relative integration efficiency (T-LR orientation) vs wild-type transposon end (log2 (normalized fold change)); transposon end mutated: right end (5 bp flank + 75 bp right end); higher = more efficient transposition
Method in brief: as §1

Sequence	relative integration efficiency (log2) [1]	relative integration efficiency (log2) [2]
ACATTTGTGGATACAACCATAAAACGATAATTACACCCATAAATTGATAATTATCACACCCAATTTAACTATAACGCTCTGATCATAGTCAGACCAACATTGCTACGACCCGTATTCGCACCGACAC	-1.13 ± 0.22	2.04 ± 0.26
ACATTTGTTGATACAACCATAAAATGATTATTACACCCATAAATTGATAATAATGACACCGAATTTAACTATAACGCTCTGATCATAGTCAGACCAACATTGCTACGACCCGTATTCGCACCGACAC	-0.616 ± 0.36	2.95 ± 0.061
ACATTTGTTGATACAACCATAAAATGATAATTACACCCATAAATTGATAATTATCACACCCATAAATTGATATTGCCTCTGATCAACCATAAAATGATAATTACATAGTCAGACCAAGCACCGACAC	0.875 ± 0.21	0.401 ± 0.26
ACATTTGTTGATACAACCATAAAATGATAATTACACCCATAAATTGATAATTATCAACCCCATAAATTGATATTGCCTCTGATCATAGTCAGACCAACATTGCTACGACCCGTATTCGCACCGACAC	-0.731 ± 0.18	1.26 ± 0.17
ACATTTGTTGATACAACCATTAAATGATAATTCCACCCATAAATTGATAATTATCACACCCAATTTAACTATAACGCTCTGATCATAGTCAGACCAACATTGCTACGACCCGTATTCGCACCGACAC	-1.06 ± 0.17	2.34 ± 0.17
ACATTTGTTGATACCACCATAAAATGGTAATTACACCCATAAATTGATAATTATCACACCCAATTTAACTATAACGCTCTGATCATAGTCAGACCAACATTGCTACGACCCGTATTCGCACCGACAC	-1.38 ± 0.13	2.15 ± 0.17
ACATTTGTTGATACAACCATAAAATGAATTAATCACCCATAAATTGAATTAATTCACACCCATAAATTGAATAACGCTCTGATCATAGTCAGACCAACATTGCTACGACCCGTATTCGCACCGACAC	-2.34 ± 0.14	-1.25 ± 0.054
ACATTTGTCGATACAACCCTAAAATGATAATTACACCCATAAATTGATAATTATCACACCCAATTTAACTATAACGCTCTGATCATAGTCAGACCAACATTGCTACGACCCGTATTCGCACCGACAC	-2.1 ± 0.33	1.04 ± 0.3
ACATTTGTTGATACACCCATAAATTGATAATTACAACCATATATTGATATCTCTCACACCCATAAATTGATAATTACTCTGATCATAGTCAGACCAACATTGCTACGACCCGTATTCGCACCGACAC	-0.753 ± 0.22	0.157 ± 0.34
ACATTTGTTGATACAACCATAAAATGATAATTACACCCATAAATTGATAATTATCACACCCATAAATTGATATTGCCTCTGTTTATGGCTAGCTCAGTCCTAGGTACAATGCTAGCCGCACCGACAC	-0.0948 ± 0.31	-0.0571 ± 0.23
ACATTTGTTTATACAACCATAAAATGATAATTACACCCATAAATGGATTATTATCACACCCAATTTAACTATAACGCTCTGATCATAGTCAGACCAACATTGCTACGACCCGTATTCGCACCGACAC	-2.39 ± 0.61	-1.01 ± 0.12
ACATTTGTTGATACAACCATAAAATGATAATTACAACCATATATTGATATCTCTCACAACCATAAAGTGATATTTACTCTGATCATAGTCAGACCAACATTGCTACGACCCGTATTCGCACCGACAC	-0.5 ± 0.27	0.0743 ± 0.02
ACATTTGTTGATACAACCATAAAAGGATCATTACACCCATAAATTGATAATTATCACACCCAATTTAACTATAACGCTCTGATCATAGTCAGACCAACATTGCTACGACCCGTATTCGCACCGACAC	-2.03 ± 0.18	1.34 ± 0.27
ACATTTGTCGATACAACCATAAAATGATAATTACACCCATAAATTCATCATTATCACACCCAATTTAACTATAACGCTCTGATCATAGTCAGACCAACATTGCTACGACCCGTATTCGCACCGACAC	-2.26 ± 0.23	1.45 ± 0.14
ACATTTGTTGATACAACCATATAATGATAATTACACCCATATATTGATAATTATCACACCCATATATTGATATTGCCTCTGATCATAGTCAGACCAACATTGCTACGACCCGTATTCGCACCGACAC	0.0833 ± 0.11	0.24 ± 0.36
ACATTTGTTGATACAACCATAAAATGGTAATTACACCCCTAAATTGATAATTATCACACCCAATTTAACTATAACGCTCTGATCATAGTCAGACCAACATTGCTACGACCCGTATTCGCACCGACAC	-3.07 ± 0.34	0.104 ± 0.26
ACATTTGTGGATACAACCCTAAAATGATAATTACACCCATAAATGGATAATTATCACCCCCAATTTAACTATAACGCTCTGATCATAGTCAGACCAACATTGCTACGACCCGTATTCGCACCGACAC	-3.8 ± 0.4	-1.16 ± 0.27
ACATTTGTTGATACAACCATAAAATGATAATTACACCCATAAATTGATAATTATCACACCCATAAATTGATATTGCCTCTGTACCGTTCGTATACGATACATTATACGAAGTTATTCGCACCGACAC	-1.24 ± 0.29	1.66 ± 0.14

Sequence	relative integration efficiency (log2) [1]	relative integration efficiency (log2) [2]
ACATTTGTTGATACAACCCTAAAATGATAATTACACCCATAAATGGATAATTATCACACCCAATTTAACTATAACGCTCTGATCATAGTCAGACCAACATTGCTACGACCCGTATTCGCACCGACAC	-3.06 ± 0.29	-0.403 ± 0.044
ACATTTGTTGATACAACCATAAAATGATAATTACACCCATAAATTGATAATTATCACACCCATAAATTGATATTGCCTCTTAACACCCGTATTACTTCATAATCGTTTGTAATTCAAGCACCGACAC	-0.169 ± 0.26	1.41 ± 0.25
ACATTTGTTGATACACCCATAAATTGATAATTACACCCATAAATTGATATTGCTCACAACCATAAAATGATAATTACTCTGATCATAGTCAGACCAACATTGCTACGACCCGTATTCGCACCGACAC	-0.918 ± 0.33	-0.204 ± 0.23
ACATTTGTTGATACAACCATAAAATGATAATTACACCCATAATTTGATAATTACCACTCCCAATTTAACTATAACGCTCTGATCATAGTCAGACCAACATTGCTACGACCCGTATTCGCACCGACAC	-1.09 ± 0.25	2.36 ± 0.071
ACATTTGTTGATACAACCATAAAATGATAATTACACCCATAAATTGATAATTATCACACCCATAAATTGATATTGCCTCTGATCATAGTCAGACCCAACCATAAAATGATAATTAAAGCACCGACAC	0.0847 ± 0.29	0.192 ± 0.26
ACATTTGTTGATACACCCATAAATTGATATTGCCAACCATAAAATGATAATTATCACACCCATAAATTGATAATTACTCTGATCATAGTCAGACCAACATTGCTACGACCCGTATTCGCACCGACAC	-0.642 ± 0.2	-0.568 ± 0.82
ACATTTGTTGATACAACCATAAAATGATAATTACACCCATAAATTCATCATTATCACACCCAATTTAACTATAACGCTCTGATCATAGTCAGACCAACATTGCTACGACCCGTATTCGCACCGACAC	-2.36 ± 0.48	1.42 ± 0.023
ACATTTGTTGATACAACCATAAAATGATAATTACACCCATAAATTGCGCCTTATCACACCCATAAATTGATATTGCCTCTGATCATAGTCAGACCAACATTGCTACGACCCGTATTCGCACCGACAC	-1.39 ± 0.2	-0.939 ± 0.25
ACATTTGTTGATACAACGATAAAATGATAATTACACCGATAAATTGATAATTATCACACCGATAAATTGATATTGCCTCTGATCATAGTCAGACCAACATTGCTACGACCCGTATTCGCACCGACAC	-0.127 ± 0.12	0.086 ± 0.12
ACATTTGTTGATACAACCATAAAATGATAATTCACCCATAAATTGATAATTATCACACCCATAAATTGATATTGCCTCTGATCATAGTCAGACCAACATTGCTACGACCCGTATTCGCACCGACACT	-1.27 ± 0.026	-0.727 ± 0.39
ACATTTGTTGATACAACCATAAAATGATAAAATCACCCATAAATTGATAAAATTCACACCCATAAATTGATATACGCTCTGATCATAGTCAGACCAACATTGCTACGACCCGTATTCGCACCGACAC	-1.05 ± 0.087	-0.368 ± 0.21
ACATTTGTTGATACAACCATAAAATGATAATTACACCCATAAATTGATAATTATCACACCCATAAATTGATAGGTAAGAGGATCATAGTCAGACCAACATTGCTACGACCCGTATTCGCACCGACAC	-0.281 ± 0.02	0.884 ± 0.061
ACATTTGTTGATACAACCATAAAATGATAATTACACCCATTTTATGATAATTATCACACCCATAAATTGATATTGCCTCTGATCATAGTCAGACCAACATTGCTACGACCCGTATTCGCACCGACAC	2.79 ± 0.74	2.63 ± 0.56
ACATTTGTTGATAAAACCATAAAATGATTTTAAGAAACCATAATCTGAAATAATCACACCCATAAATTGATATTGCCTCTGATCATAGTCAGACCAACATTGCTACGACCCGTATTCGCACCGACAC	-3.13 ± 0.069	-1.78 ± 0.24
ACATTTGTTGATACAACCATAAAATGATAATTACACCCCTACATTGATAATTATCACACCCAATTTAACTATAACGCTCTGATCATAGTCAGACCAACATTGCTACGACCCGTATTCGCACCGACAC	-2.87 ± 0.33	0.306 ± 0.013
ACATTTGTTGATACACACATAAAATGATAATTACACCCATAAATTGATAATTATCACACCCATAAATTGATATTGCCTCTGATCATAGTCAGACCAACATTGCTACGACCCGTATTCGCACCGACAC	-0.5621 ± 0.0046	-0.763 ± 0.33
ACATTTGTTGATACAACCCTAAAATGATAATTACACCCATAAATGGATCATTATCACCCCCAATTTAACTATAACGCTCTGATCATAGTCAGACCAACATTGCTACGACCCGTATTCGCACCGACAC	-4.22 ± 0.58	-1.44 ± 0.036
